Starred links: 1 amine or outer side, 2 acyl side, 3 side chain; linkers in the order of their positions; H or OH if unused. Non-standard residues stand in square brackets, D forms with d. *: point of attachment. des‑NH2‑α‑pyrrolidine‑1‑yl = Dmt (2',6'-dimethyl-L-tyrosine) with the α-amine replaced by pyrrolidine-1-yl, Cc1cc(O)cc(C)c1C[C@@H](C(=O)*)N1CCCC1; des‑NH2‑α‑piperidine‑1‑yl = Dmt (2',6'-dimethyl-L-tyrosine) with the α-amine replaced by piperidine-1-yl, Cc1cc(O)cc(C)c1C[C@@H](C(=O)*)N1CCCCC1; βTic = 1,2,3,4-tetrahydroisoquinoline-3-yl acetic acid, O=C(C[C@@H]1Cc2ccccc2CN1[*:1])[*:2]; des‑NH2‑α‑pyrrole‑1‑yl = replacement of the α-amino group by a pyrrol-1-yl group; NH(1-Adamantyl) = C1C2CC3CC1CC(N*)(C2)C3; Dmt = Cc1cc(O)cc(C)c1C[C@H](N)C(=O)O; NH‑tetrazole‑5‑yl = n1nc(N*)n[nH]1; Tic = O=C(O)[C@@H]1Cc2ccccc2CN1; dTic = O=C(O)[C@H]1Cc2ccccc2CN1; NHtBu = CC(C)(C)N*
B1: dermorphin: H-Tyr-D-Ala-Phe-Gly-Tyr-Pro-Ser-NH2 (peptide)
peptide: H-Y[dA]FGYPS-NH2
B2: H-Dmt-D-Tic-NH-1-adamantane (peptide)
peptide: H-[Dmt]-[dTic]-{NH(1-Adamantyl)}
B3: N,N(Me)2-Dmt-Tic-NH-1-adamantane (peptide)
peptide: {N,N‑dimethyl}-[Dmt]-[Tic]-{NH(1-Adamantyl)}
B4: H-Dmt-Tic-NH-1-adamantane (peptide)
peptide: H-[Dmt]-[Tic]-{NH(1-Adamantyl)}
SMILES: Cc1cc(O)cc(C)c1C[C@H](N)C(=O)N1Cc2ccccc2C[C@H]1C(=O)NC12CC3CC(CC(C3)C1)C2
B5: H-Dmt-Tic-Ala-NH2 (peptide)
peptide: H-[Dmt]-[Tic]-Ala-NH2
B6: [des-NH2-α-piperidine-1-yl]-Dmt-Tic-OH (peptide)
peptide: {des‑NH2‑α‑piperidine‑1‑yl}-[Dmt]-[Tic]-OH
B7: N,N(Me)2-Dmt-D-Tic-NH-1-adamantane (peptide)
peptide: {N,N‑dimethyl}-[Dmt]-[dTic]-{NH(1-Adamantyl)}
B8: H-Dmt-Tic-Ala-NH-tBu (peptide)
peptide: H-[Dmt]-[Tic]-Ala-NHtBu
SMILES: Cc1cc(O)cc(C)c1C[C@H](N)C(=O)N1Cc2ccccc2C[C@H]1C(=O)N[C@@H](C)C(=O)NC(C)(C)C
B9: H-Dmt-Tic-NH-tetrazole-5-yl (peptide)
peptide: H-[Dmt]-[Tic]-{NH‑tetrazole‑5‑yl}
B10: H-Dmt-βTic-OH (peptide)
peptide: H-[Dmt]-[βTic]-OH
B11: H-Dmt-Tic-NHMe (peptide)
peptide: H-[Dmt]-[Tic]-NHMe
B12: [des-NH2-α-pyrrole-1-yl]-Dmt-Tic-OH (peptide)
peptide: {des‑NH2‑α‑pyrrole‑1‑yl}-[Dmt]-[Tic]-OH
B13: N,N(Me)2-Dmt-Tic-NHMe (peptide)
peptide: {N,N‑dimethyl}-[Dmt]-[Tic]-NHMe
B14: H-Dmt-Tic-Ala-NHMe (peptide)
peptide: H-[Dmt]-[Tic]-Ala-NHMe
SMILES: CNC(=O)[C@H](C)NC(=O)[C@@H]1Cc2ccccc2CN1C(=O)[C@@H](N)Cc1c(C)cc(O)cc1C
B15: H-Dmt-Tic-Ala-NH-1-adamantane (peptide)
peptide: H-[Dmt]-[Tic]-Ala-{NH(1-Adamantyl)}
B16: N,N(Me)2-Dmt-Tic-NH-tBu (peptide)
peptide: {N,N‑dimethyl}-[Dmt]-[Tic]-NHtBu
B17: H-Dmt-Tic-NH-tBu (peptide)
peptide: H-[Dmt]-[Tic]-NHtBu
SMILES: Cc1cc(O)cc(C)c1C[C@H](N)C(=O)N1Cc2ccccc2C[C@H]1C(=O)NC(C)(C)C
B18: [des-NH2-α-pyrrolidine-1-yl]-Dmt-Tic-OH (peptide)
peptide: {des‑NH2‑α‑pyrrolidine‑1‑yl}-[Dmt]-[Tic]-OH
B19: H-(R,S)Dmt-Tic-OH (peptide)
peptide: H-[Dmt]-[Tic]-OH
modifications: also: (R,S)-Dmt, racemic, mixture of diastereomers

What follows are binders tested against T1, µ-opioid receptor of the guinea pig ileum (GPI) (guinea pig) (assay: cell-based or functional assay).
In the case of B1, the “IC50 (µ agonist activity, GPI)” value is reported as 0.00182 µM.

Biological target: T1, µ-opioid receptor of the guinea pig …
Assay: cell-based or functional assay
Remark: another data set of the same source
For B2, the “GPI ED50” value was 1.68 µM. For B3, the “GPI ED50” value was 0.016 µM. B4 was tested, and the “GPI ED50” value was 0.036 µM. With B5 the “GPI ED50” value was 4.74 µM. With B6 the “GPI ED50” value was greater than 10 µM. B7 was tested, and the “GPI ED50” value was 4.48 µM. B8 was tested, and the “GPI ED50” value was greater than 10 µM, the “GPI Ke” value was 0.17 µM and the “GPI pA2” value was 6.76. B9 was tested, and the “GPI ED50” value was 8.2 µM. B10 was tested, and the “GPI ED50” value was greater than 10 µM. With B11 the “GPI ED50” value was greater than 10 µM, the “GPI Ke” value was 1.15 µM and the “GPI pA2” value was 5.94. For B12, the “GPI ED50” value was greater than 10 µM. In the case of B13, the “GPI ED50” value is reported as greater than 10 µM, the “GPI Ke” value is reported as 0.39 µM and the “GPI pA2” value is reported as 6.41. In the case of B14, the “GPI ED50” value is reported as 0.29 µM. For B15, the “GPI ED50” value was 1 µM. In the case of B16, the “GPI ED50” value is reported as greater than 10 µM and the “GPI Ke” value is reported as 0.3 µM. For B17, the “GPI ED50” value was 1.04 µM. With B18 the “GPI ED50” value was greater than 10 µM. B19 was tested, and the “GPI ED50” value was greater than 10 µM.
